The chains are these.
B1: RapF [B. subtilis] / PhrC [B. subtilis] (parent)
chain 1: MTGVISSSSIGEKINEWYMYIRRFSIPDAEYLRREIKQELDQMEEDQDLHLYYSLMEFRHNLMLEYLEPLEKMRIEEQPRLSDLLLEIDKKQARLTGLLEYYFNFFRGMYELDQREYLSAIKFFKKAESKLIFVKDRIEKAEFFFKMSESYYYMKQTYFSMDYARQAYEIYKEHEAYNIRLLQCHSLFATNFLDLKQYEDAISHFQKAYSMAEAEKQPQLMGRTLYNIGLCKNSQSQYEDAIPYFKRAIAVFEESNILPSLPQAYFLITQIHYKLGKIDKAHEYHSKGMAYSQKAGDVIYLSEFEFLKSLYLSGPDEEAIQGFFDFLESKMLYADLEDFAIDVAKYYHERKNFQKASAYFLKVEQVRQLIQGGVSLYEIEV
chain 2: ERGMT
B2: RapF [B. subtilis] / PhrF [B. subtilis] (parent)
chain 1: B1 chain 1
chain 2: QRGMI

Variants of B1 are the subject of one assay. Put plainly: thermal-shift assay (Sypro orange fluorescence). The conditions noted are these: with PhrC [B. subtilis], printed Tm without peptide: mutant 53.4 °C, wild type 49.5 °C.
Consider chain 1 D194A, for which the screen value amounted to 52.3 °C.

The assay is the same for the next values; noted with them: with PhrC [B. subtilis], printed Tm without peptide: mutant 50.1 °C, wild type 49.5 °C.
As to chain 1 N227A, the screen value was 49.2 °C.

Staying with this assay, now noted: with PhrC [B. subtilis], printed Tm without peptide: mutant 51.3 °C, wild type 49.5 °C.
As for chain 1 E303A, the screen value stood at 53.8 °C.

The next assay covers variants of B2. Put plainly: thermal-shift assay (Sypro orange fluorescence). The note with it: with PhrF [B. subtilis], printed Tm without peptide: mutant 50.1 °C, wild type 49.5 °C.
Take chain 1 N227A: the screen value is 49.2 °C.

The assay is the same for the next values; noted with them: with PhrF [B. subtilis], printed Tm without peptide: mutant 53.4 °C, wild type 49.5 °C.
As for chain 1 D194A, the screen value turned out to be 53.3 °C.

Source of the values: PMC3601957, “Structural Basis of Rap Phosphatase Inhibition by Phr Peptides” (PLoS Biology, 2013).
